Columns and labels:
[1] = target: T1, biotin-labeled CD47 extracellular domain protein (CD47-ECD) (UniProt Q08722 19-139, limits assumed, biotin-labeled (sites not given)); assay: blocking ELISA, biotin-CD47-ECD on coated SIRPα-hFc; Ab 0.32 nM
T1 construct: extracellular domain; also called CD47 protein

[2] = target: T2, human CD47, full length, on transfected cells (human, UniProt Q08722 19-323); assay: FACS CHOK1-hCD47; Ab 1.6 nM
T2 construct: whole, on cells; also called CHOK1-hCD47
Procedure: (§1) The CHOK1-hCD47 stable cell lines and CHOK1-cCD47 stable cell lines were expanded to 90% confluence in a T-75 cell culture flask, the medium was exhausted, washed twice with HBSS buffer (Hanks balanced salt solution) (purchased from Invitrogen), and then treated and collected with enzyme-free cell dissociation solution (Versene solution: purchased from Life technology). The cells were washed twice with HBSS buffer. After counted, the cells were diluted with HBSS to 2×10⁶ cells per ml, added with 1% goat serum blocking solution, wherein the percentage was the mass percantage, incubated on ice for 30 minutes, and then washed twice with HBSS by centrifugation. […] The plate was washed 3 times with FACS buffer by centrifugation, added with 100 μl fixative solution [4% (v/v) Paraformaldehyde] per well to suspend the cells. 10 minutes later, it was washed twice with FACS buffer by centrifugation. The cells were suspended with 100 microliters of FACS buffer, FACS (FACS Calibur, purchased from BD) was used for detection and the results were analyzed.

[3] = target: T1, biotin-labeled CD47 extracellular …; assay: blocking ELISA, biotin-CD47-ECD on coated SIRPα-hFc; Ab 1.6 nM
Procedure: (§2) The plate was sealed with plastic film and incubated at 4° C. overnight. The plate was washed twice with plate washing solution [PBS+0.01% (v/v) Tween20] on the next day, and blocking solution [PBS+0.01% (v/v) Tween20 +1% (w/w) BSA] was added to block it at room temperature for 2 hours. […] After incubation at 37° C. for 2 hours, the plate was washed three times with the plate washing solution [PBS+0.01% (v/v) Tween 20]. HRP (horseradish peroxidase) labeled avidin diluent (purchased from Sigma) was added as 100 microliters per well, and after the plate was incubated for 2 hours at 37° C., it was washed 3 times with washing solution [PBS+0.01% (v/v) Tween 20]. 100 μl of TMB substrate was added to each well. After incubated at room temperature for 30 minutes, the plate was added with 100 μl of stop solution (1.0N HCl) to each well.

[4] = target: T1, biotin-labeled CD47 extracellular …; assay: blocking ELISA, biotin-CD47-ECD on coated SIRPα-hFc; Ab 0.0128 nM
Procedure: as §2

[5] = target: T2, human CD47, full length, on transfected …; assay: FACS CHOK1-hCD47; Ab 0.32 nM
Procedure: as §1

[6] = target: T3, His-tagged CD47 recombinant protein, CD47-His (human, UniProt Q08722 19-141, limits assumed); assay: ELISA on coated CD47-His; Ab 0.004 nM
T3 construct: it is not restated for CD47-His; also called human CD47-His protein; antigen CD47-His; not shown: His tag

[7] = target: T3, His-tagged CD47 recombinant protein, …; assay: ELISA on coated CD47-His; Ab 0 nM (background)
Procedure: (§3) The plate was sealed with plastic film and incubated at 4° C. overnight. The plate was washed twice with plate washing solution [PBS+0.01% (v/v) Tween20] the next day, and blocking solution [PBS+0.01% (v/v) Tween20 +1% (w/w) BSA] was added to block it at room temperature for 2 hours. […] After incubation at 37° C. for 2 hours, the plates were washed three times with plate washing solution [PBS+0.01% (v/v) Tween 20]. HRP (horseradish peroxidase) labeled secondary antibody (purchased from Sigma) was added, incubated at 37° C. for 2 hours, and then washed three times with plate washing solution [PBS+0.01% (v/v) Tween 20]. 1000 of TMB substrate was added to each well. After incubated at room temperature for 30 minutes, the plate was added with 100 μl of stop solution (1.0N HCl) to each well.

[8] = target: T2, human CD47, full length, on transfected …; assay: FACS CHOK1-hCD47; Ab 0.0128 nM
Procedure: as §1

[9] = target: T3, His-tagged CD47 recombinant protein, …; assay: ELISA on coated CD47-His; Ab 0.107 nM
Procedure: as §3

[10] = target: T1, biotin-labeled CD47 extracellular …; assay: blocking ELISA, biotin-CD47-ECD on coated SIRPα-hFc; Ab 0 nM
Procedure: as §2

[11] = target: T3, His-tagged CD47 recombinant protein, …; assay: ELISA on coated CD47-His; Ab 66.667 nM
Procedure: as §3

[12] = target: T3, His-tagged CD47 recombinant protein, …; assay: ELISA on coated CD47-His; Ab 0.021 nM
Procedure: as §3

[13] = target: T2, human CD47, full length, on transfected …; assay: FACS CHOK1-hCD47; Ab 0.064 nM
Procedure: as §1

[14] = target: T4, cynomolgus CD47, on CHOK1-cCD47 stable cell line (cynomolgus); assay: FACS CHOK1-cCD47; Ab 8 nM
T4 construct: whole, on cells; check before use; also called CHOK1/cynoCD47; monkey-derived CD47
Procedure: as §1

[15] = target: T4, cynomolgus CD47, on CHOK1-cCD47 stable …; assay: FACS CHOK1-cCD47; Ab 0.064 nM
Procedure: as §1

[16] = target: T1, biotin-labeled CD47 extracellular …; assay: blocking ELISA, biotin-CD47-ECD on coated SIRPα-hFc; Ab 40 nM
Procedure: as §2

[17] = target: T2, human CD47, full length, on transfected …; assay: FACS CHOK1-hCD47; Ab 8 nM
Procedure: as §1

[18] = target: T4, cynomolgus CD47, on CHOK1-cCD47 stable …; assay: FACS CHOK1-cCD47; Ab 0.32 nM
Procedure: as §1

[19] = target: T4, cynomolgus CD47, on CHOK1-cCD47 stable …; assay: FACS CHOK1-cCD47; Ab 40 nM
Procedure: as §1

[20] = target: T1, biotin-labeled CD47 extracellular …; assay: blocking ELISA, biotin-CD47-ECD on coated SIRPα-hFc; Ab 0.064 nM
Procedure: as §2

[21] = target: T4, cynomolgus CD47, on CHOK1-cCD47 stable …; assay: FACS CHOK1-cCD47; Ab 0 nM (background)
Procedure: as §1

[22] = target: T1, biotin-labeled CD47 extracellular …; assay: blocking ELISA, biotin-CD47-ECD on coated SIRPα-hFc; Ab 8 nM
Procedure: as §2

[23] = target: T4, cynomolgus CD47, on CHOK1-cCD47 stable …; assay: FACS CHOK1-cCD47; Ab 0.0128 nM
Procedure: as §1

[24] = target: T4, cynomolgus CD47, on CHOK1-cCD47 stable …; assay: FACS CHOK1-cCD47; Ab 1.6 nM
Procedure: as §1

[25] = target: T2, human CD47, full length, on transfected …; assay: FACS CHOK1-hCD47; Ab 0 nM (background)
Procedure: as §1

[26] = target: T2, human CD47, full length, on transfected …; assay: FACS CHOK1-hCD47; Ab 200 nM
Procedure: as §1

[27] = target: T2, human CD47, full length, on transfected …; assay: FACS CHOK1-hCD47; Ab 40 nM
Procedure: as §1

[28] = target: T4, cynomolgus CD47, on CHOK1-cCD47 stable …; assay: FACS CHOK1-cCD47; Ab 200 nM
Procedure: as §1

[29] = target: T3, His-tagged CD47 recombinant protein, …; assay: ELISA on coated CD47-His; Ab 0.533 nM
Procedure: as §3

[30] = target: T3, His-tagged CD47 recombinant protein, …; assay: ELISA on coated CD47-His; Ab 13.333 nM
Procedure: as §3

[31] = target: T1, biotin-labeled CD47 extracellular …; assay: blocking ELISA, biotin-CD47-ECD on coated SIRPα-hFc; Ab 200 nM
Procedure: as §2

[32] = target: T3, His-tagged CD47 recombinant protein, …; assay: ELISA on coated CD47-His; Ab 2.667 nM
Procedure: as §3

[33] = target: T4, cynomolgus CD47, on CHOK1-cCD47 stable …; assay: flow cytometry (FACS) on CHOK1-cynoCD47 cells, mean fluorescence intensity
Procedure: as §1

Row | OD450 nm of CD47 bound to SIRPα [1] | mean fluorescence intensity [2] | OD450 nm of CD47 bound to SIRPα [3] | OD450 nm of CD47 bound to SIRPα [4] | mean fluorescence intensity [5] | OD450 nm [6] | OD450 nm [7] | mean fluorescence intensity [8] | OD450 nm [9] | OD450 nm of CD47 bound to SIRPα [10] | OD450 nm [11] | OD450 nm [12] | mean fluorescence intensity [13] | mean fluorescence intensity [14] | mean fluorescence intensity [15] | OD450 nm of CD47 bound to SIRPα [16] | mean fluorescence intensity [17] | mean fluorescence intensity [18] | mean fluorescence intensity [19] | OD450 nm of CD47 bound to SIRPα [20] | Binder | further results
1 | 0.31 | 6180 | 0.13 | 2.89 | 1940 | 0.18 | 0.05 | 216 | 2.1 | 2.9 | 2.86 | 0.62 | 561 | 21300 | 908 | 0.06 | 13500 | 3250 | 21200 | 1.76 | 54G8G6 (antibody, V domains shown, Murine hybridoma antibody purified on protein G) VH: QVQLQQPGADLVKPGASVKMSCKASGYTFTSYWIIWVKQRPGQGLEWIGDINPGRGSPNYNEKFKRKATLTVDTSSSTAYMQLSSLTSEDSAVYYCVRGGLRRFDHWGQGTLVTVSA VL: ENVLTQSPAIMSASPGEKVTMTCRASSSVSSSYLHWYQQKSGASPKLWIYSTSTLASGVPARFSGSGSGTSYSLTISSVEAEDAATYYCQQYSGYPYTFGGGTKLEIK | mean fluorescence intensity [21]: 76.8; OD450 nm of CD47 bound to SIRPα [22]: 0.09; mean fluorescence intensity [23]: 278; mean fluorescence intensity [24]: 9570; mean fluorescence intensity [25]: 23.1; mean fluorescence intensity [26]: 16700; mean fluorescence intensity [27]: 17700; mean fluorescence intensity [28]: 17200; OD450 nm [29]: 2.99; OD450 nm [30]: 2.94; OD450 nm of CD47 bound to SIRPα [31]: 0.07; OD450 nm [32]: 3
2 | 2 | 6140 | 0.52 | 2.96 | 2490 | 0.17 | 0.05 | 221 | 2.07 | 2.94 | 2.93 | 0.58 | 408 | 21400 | 734 | 0.06 | 12300 | 3040 | 17500 | 2.84 | 95E2D10 (antibody, V domains shown, Murine hybridoma antibody purified on protein G) VH: QIQLQQSGPELVKPGASMKISCKASGYPFTDYYIHWVKQKPGQGLEWIGWIYPGSGNNKYNEKFKGKATLTVDTSPSTVYMQLSSLTSEDTAVYFCARRAGNYFDYWGQGTTLTVSS VL: NIVMTQSPKSMSRSVGERVTLSCRASENVRTYVFWYQQKPGLSPKLLIYGASNRYIGVPDRFTGSGSATDFTLTISSVQAEDLADYHCGQSYSYPLTFGAGTKLELK | mean fluorescence intensity [21]: 76; OD450 nm of CD47 bound to SIRPα [22]: 0.09; mean fluorescence intensity [23]: 223; mean fluorescence intensity [24]: 7990; mean fluorescence intensity [25]: 23.3; mean fluorescence intensity [26]: 15800; mean fluorescence intensity [27]: 17300; mean fluorescence intensity [28]: 21200; OD450 nm [29]: 2.96; OD450 nm [30]: 2.98; OD450 nm of CD47 bound to SIRPα [31]: 0.06; OD450 nm [32]: 3.01
3 | 0.79 | 3750 | 0.16 | 2.92 | 1330 | 0.14 | 0.06 | 88.4 | 1.83 | 2.89 | 2.88 | 0.49 | 318 | 8740 | 689 | 0.08 | 6310 | 2060 | 5610 | 2.55 | 132D1E5 (antibody, V domains shown, Murine hybridoma antibody purified on protein G) VH: QVQLQQPGAELVRPGSSVKLSCKASGYTFTNNWMHWVKQRPLQGLEWIGNIDPSDSETHYNQKFKDKATLTVDKSSTTAYIQLSSLTSEDSAVYYCARWRGGGRGAMDYWGQGTSVTVSS VL: DVQITQSPSYLAASPGETITINCRTSKNISKFLAWYQEKPGKTNKLLIYSGSTLQSGIPSRFSGSGSGTDFTLTISNLEPEDFAMYYCQQHNEYPWTFGRGTKLEIK | mean fluorescence intensity [21]: 72.5; OD450 nm of CD47 bound to SIRPα [22]: 0.07; mean fluorescence intensity [23]: 224; mean fluorescence intensity [24]: 6060; mean fluorescence intensity [25]: 18.1; mean fluorescence intensity [26]: 7100; mean fluorescence intensity [27]: 8230; mean fluorescence intensity [28]: 6970; OD450 nm [29]: 2.96; OD450 nm [30]: 2.95; OD450 nm of CD47 bound to SIRPα [31]: 0.08; OD450 nm [32]: 3.07
4 | – | – | – | – | – | – | – | – | – | – | – | – | – | – | – | – | – | – | – | – | Hu5F9-G4 (antibody, V domains shown) VH: QVQLVQSGAEVKKPGASVKVSCKASGYTFTNYNMHWVRQAPGQRLEWMGTIYPGNDDTSYNQKFKDRVTITADTSASTAYMELSSLRSEDTAVYYCARGGYRAMDYWGQGTLVTVSS VL: DIVMTQSPLSLPVTPGEPASISCRSSQSIVYSNGNTYLGWYLQKPGQSPQLLIYKVSNRFSGVPDRFSGSGSGTDFTLKISRVEAEDVGVYYCFQGSHVPYTFGQGTKLEIKR | EC50 (read off the curve) [33]: ~3 nM
